This assay deals with filamentous actin from rabbit skeletal muscle (rabbit) (UniProt P68135). The assay is described as follows: differential scanning calorimetry.

In turn, “α-tropomyosin D230N, with N-terminal ala-ser (natural protein)” displayed a melt temperature of the Tm–actin interaction of 47.9 °C. In the case of “α-tropomyosin, wild type, with N-terminal ala-ser (natural protein)”, the melt temperature of the Tm–actin interaction is 47.2 °C and the melt temperature of the Tn–Tm–actin interaction (Tn with cTnT R92L) was 47.3 °C.

The record behind these values is article PMC5575768.
